From publication PMC10397247
Blank lines part the entries; values can stand above or below the binder they belong to.

Key:
[1] = target: T1, 4H492-bA; test: two-hybrid library CCNG1;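 further: natural log of median RNA to DNA barcode read ratio; higher means stronger binding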
T1 chain: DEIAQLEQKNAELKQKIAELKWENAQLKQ

[2] = target: T2, 4H348-bA; test: two-hybrid library CCNG1;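 further: natural log of median RNA to DNA barcode read ratio; higher means stronger binding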
T2 chain: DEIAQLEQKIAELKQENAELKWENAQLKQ

[3] = target: T3, 4H477-bA; test: two-hybrid library CCNG1;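 further: natural log of median RNA to DNA barcode read ratio; higher means stronger binding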
T3 chain: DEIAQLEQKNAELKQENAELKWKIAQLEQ

[4] = target: T4, 4H319-bA; test: two-hybrid library CCNG1;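 further: natural log of median RNA to DNA barcode read ratio; higher means stronger binding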
T4 chain: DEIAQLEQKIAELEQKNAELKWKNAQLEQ

[5] = target: T5, 4H40-bA; test: two-hybrid library CCNG1
T5 chain: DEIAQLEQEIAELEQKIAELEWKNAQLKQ

[6] = target: T6, 4H741-bA; test: two-hybrid library CCNG1
T6 chain: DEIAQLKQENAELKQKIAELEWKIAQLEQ

[7] = target: T7, 4H3277-bA; test: two-hybrid library CCNG1
T7 chain: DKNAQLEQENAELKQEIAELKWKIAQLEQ

[8] = target: T8, 4H3102-AA; test: two-hybrid library CCmax; settings: mean of both orientations
T8 chain: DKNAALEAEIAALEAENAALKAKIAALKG

[9] = target: T9, 4H971-AA; test: two-hybrid library CCmax; settings: mean of both orientations
T9 chain: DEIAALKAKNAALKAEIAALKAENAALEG

[10] = target: T10, 4H3591-AA; test: two-hybrid library CCmax; settings: mean of both orientations
T10 chain: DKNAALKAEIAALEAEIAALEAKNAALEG

[11] = target: T11, 4H675-AA; test: two-hybrid library CCmax; settings: mean of both orientations
T11 chain: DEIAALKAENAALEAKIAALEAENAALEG

[12] = target: T12, 4H3029-AA; test: two-hybrid library CCmax; settings: mean of both orientations
T12 chain: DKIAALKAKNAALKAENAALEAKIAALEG

[13] = target: T13, 4H391-AA; test: two-hybrid library CCmax; settings: mean of both orientations
T13 chain: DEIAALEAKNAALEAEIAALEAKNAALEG

[14] = target: T14, 4H428-AA; test: two-hybrid library CCmax; settings: mean of both orientations
T14 chain: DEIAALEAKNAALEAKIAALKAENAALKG

[15] = target: T15, 4H3666-AA; test: two-hybrid library CCmax; settings: mean of both orientations
T15 chain: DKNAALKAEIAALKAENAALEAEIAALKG

[16] = target: T16, 4H656-AA; test: two-hybrid library CCmax; settings: mean of both orientations
T16 chain: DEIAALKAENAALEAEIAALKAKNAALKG

[17] = target: T17, 4H3446-AA; test: two-hybrid library CCmax; settings: mean of both orientations
T17 chain: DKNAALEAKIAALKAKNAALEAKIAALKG

[18] = target: T18, 4H3939-AA; test: two-hybrid library CCmax; settings: mean of both orientations
T18 chain: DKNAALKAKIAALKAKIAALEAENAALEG

[19] = target: T19, 4H478-AA; test: two-hybrid library CCmax; settings: mean of both orientations
T19 chain: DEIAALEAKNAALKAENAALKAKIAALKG

[20] = target: T20, 4H497-AA; test: two-hybrid library CCmax; settings: mean of both orientations
T20 chain: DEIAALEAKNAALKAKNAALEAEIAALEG

[21] = target: T21, 4H3417-AA; test: two-hybrid library CCmax; settings: mean of both orientations
T21 chain: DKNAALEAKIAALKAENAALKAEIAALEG

[22] = target: T22, 4H3121-AA; test: two-hybrid library CCmax; settings: mean of both orientations
T22 chain: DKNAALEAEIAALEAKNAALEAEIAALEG

[23] = target: T23, 4H2948-AA; test: two-hybrid library CCmax; settings: mean of both orientations
T23 chain: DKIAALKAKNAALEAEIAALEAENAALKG

[24] = target: T24, 4H3066-AA; test: two-hybrid library CCmax; settings: mean of both orientations
T24 chain: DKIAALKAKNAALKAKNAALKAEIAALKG

[25] = target: T25, 4H3709-AA; test: two-hybrid library CCmax; settings: mean of both orientations
T25 chain: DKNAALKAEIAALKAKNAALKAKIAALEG

[26] = target: T26, 4H2742-AA; test: two-hybrid library CCmax
T26 chain: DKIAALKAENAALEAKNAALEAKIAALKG

[27] = target: T27, 4H3628-AA; test: two-hybrid library CCmax
T27 chain: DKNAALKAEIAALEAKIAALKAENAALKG

[28] = target: T28, 4H3920-AA; test: two-hybrid library CCmax; settings: mean of both orientations
T28 chain: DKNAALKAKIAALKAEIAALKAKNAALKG

[29] = target: T29, 4H2991-AA; test: two-hybrid library CCmax
T29 chain: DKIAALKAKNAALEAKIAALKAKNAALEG

[30] = target: T30, O9-bA; test: two-hybrid library CCNG1
T30 chain: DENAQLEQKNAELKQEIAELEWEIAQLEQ

[31] = target: T31, O7-bA; test: two-hybrid library CCNG1
T31 chain: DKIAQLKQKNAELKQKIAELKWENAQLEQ

[32] = target: T32, O8-bA; test: two-hybrid library CCNG1
T32 chain: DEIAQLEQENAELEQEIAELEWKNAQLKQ

interaction score [1]: -1.05
interaction score [2]: -0.881
interaction score [3]: -0.399
interaction score [4]: -0.125
interaction score [5]: -0.44
interaction score [6]: -0.873
interaction score [7]: -0.964
B1: 4H319-bA (peptide)
chain: DEIAQLEQKIAELEQKNAELKWKNAQLEQ

interaction score [8]: -1.33
interaction score [9]: -1.91
interaction score [10]: -0.99
interaction score [11]: -1.53
interaction score [12]: 0.775
interaction score [13]: -1.21
interaction score [14]: -1.6
interaction score [15]: -1.97
interaction score [16]: -2
interaction score [17]: -1.39
interaction score [18]: -1.63
interaction score [19]: 1.12
interaction score [20]: 2.42
interaction score [21]: -1.41
interaction score [22]: -1.7
interaction score [23]: -0.899
interaction score [24]: 1.72
interaction score [25]: -1.19
interaction score [26]: -0.3
interaction score [27]: -1.49
interaction score [28]: -1.23
interaction score [29]: -0.693
B2: 4H2742-AA (peptide)
chain: DKIAALKAENAALEAKNAALEAKIAALKG

interaction score [30]: -0.962
interaction score [31]: -1.12
interaction score [32]: 2.08
B3: O7-bA (peptide)
chain: DKIAQLKQKNAELKQKIAELKWENAQLEQ
